# Assay results published in patent US20090130676.
# Tested on: His6-aptamers (peptide aptamers of FIGS. 4A and 4B, purified)
substance,measurement,value
Cdk2/Cyclin E kinase,phosphorylation of Histone H1 by Cdk2/Cyclin E kinase,All tested aptamers were able to inhibit phosphorylation of Histone H1 by Cdk2/Cyclin E kinase
